Each block holds one substance with its values, some of them ahead of it.
What was measured:
Assay in all cases: cell-based or functional assay
Arp2/3 complex (human) = Arp2/3 complex (human) (UniProt P61158)
[1] = molecular target: Actin (G-actin with pyrene-actin) (chicken)
[2] = molecular target: Full length human N-WASP, TAP-tagged at the C-terminus (Myc-N-WASP-TAP) (human)
[3] = molecular target: Full length human WASP, TAP-tagged at the C-terminus (Myc-WASP-TAP) (human)

activity relative to 105 WASP (fold against 105 WASP) (Arp2/3 complex (human)): 20 | concentration giving maximal concentration of barbed ends (500 nM Cdc42, 2.5 nM Arp2/3, 3.5 uM actin) (Arp2/3 complex (human)): 3 nM | potency relative to the VCA/WA domain (fold against VCA/WA domain) (Arp2/3 complex (human)): > 70
Substance: Full length human WASP, TAP-tagged at the C-terminus (Myc-WASP-TAP)

Barbed ends [2]: 3.5 nM | Barbed ends % of max. [2]: 78% | EC50 [2]: 0.007 µM | Barbed ends [3]: 2.6 nM | Barbed ends % of max. [3]: 50% | EC50 [3]: 0.012 µM
Substance: GST-Nck2

EC50 [2]: 0.287 µM | EC50 [3]: 0.016 µM
Substance: GST-tev-Cdc42 (enzyme)

The remaining lines, values behind:

Substance: GST tagged C. albicans FH1-FH2 domain (from UniProt Q5AL52 972-1598)
lag phase of actin polymerization at 100 nM formin [1]: < 100 s | time to saturation phase of actin polymerization at 100 nM formin [1]: 400 s

Substance: His6 tagged C. albicans FH1-FH2 domain (from UniProt Q5AL52 972-1598)
formin concentration to observe saturation of actin polymerization [1]: 300 to 500 nM
